From the supplement of paper PMC9428881
± gives the standard error.

assay: background-corrected fluorescence of 3'-dye-labeled ssDNA relative to brightest sequence (3'-GCGCG) (fraction); higher = brighter dye fluorescence (less quenching); details: dye: Cy3 (3' terminal)
Protocol: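 Single-stranded DNA is synthesized in situ on glass microarrays by 5'->3' photolithographic synthesis, with a Cy3 or Cy5 phosphoramidite coupled at the 3' end next to all 1024 permuted pentamers P1-P5. The construct is 5'-T5-(ACGT minus P5..P1 trinucleotides)-T15-P5P4P3P2P1-dye-3'; the dye is a 3' terminal modification, not part of the sequence. Arrays were scanned at 532 nm (Cy3) or 635 nm (Cy5), background from unlabeled oligos was subtracted, and values are averaged over 10 replicate features per array and at least 3 independent syntheses.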

Point of comparison: “TTTTTGCATCATGCTCATGCTTTTTTTTTTTTTTTTGAGA [AGAGT]”, background-corrected fluorescence 0.679 ± 0.038. Against it:
- TTTTTGCATCAGCAGCATGATTTTTTTTTTTTTTTTGTTC [CTTGT] — lower, 0.433 ± 0.0082
- TTTTTGCATCAGCAGCATGCTTTTTTTTTTTTTTTTGTTA [ATTGT] — lower, 0.51 ± 0.02
- TTTTTGCATCAGCATCAGCATTTTTTTTTTTTTTTTGTGT — lower, 0.603 ± 0.025
- TTTTTGCATCAGCATCATCATTTTTTTTTTTTTTTTGTGG [GGTGT] — within error, 0.585 ± 0.06
- TTTTTGCATCAGCATCATGATTTTTTTTTTTTTTTTGTGC [CGTGT] — lower, 0.494 ± 0.0099
- TTTTTGCATCAGCATCATGCTTTTTTTTTTTTTTTTGTGA [AGTGT] — within error, 0.68 ± 0.026
- TTTTTGCATCAGCATGAGCATTTTTTTTTTTTTTTTGTCT [TCTGT] — lower, 0.48 ± 0.021
- TTTTTGCATCAGCATGATCATTTTTTTTTTTTTTTTGTCG [GCTGT] — lower, 0.552 ± 0.029
- TTTTTGCATCAGCATGATGATTTTTTTTTTTTTTTTGTCC [CCTGT] — lower, 0.401 ± 0.014
- TTTTTGCATCAGCATGATGCTTTTTTTTTTTTTTTTGTCA [ACTGT] — lower, 0.487 ± 0.069
- TTTTTGCATCAGCATGCGCATTTTTTTTTTTTTTTTGTAT [TATGT] — lower, 0.53 ± 0.024
- TTTTTGCATCAGCATGCTCATTTTTTTTTTTTTTTTGTAG [GATGT] — lower, 0.535 ± 0.015
- TTTTTGCATCAGCATGCTGATTTTTTTTTTTTTTTTGTAC [CATGT] — lower, 0.471 ± 0.041
- TTTTTGCATCAGCATGCTGCTTTTTTTTTTTTTTTTGTAA [AATGT] — lower, 0.596 ± 0.019
- TTTTTGCATCATCAGCAGCATTTTTTTTTTTTTTTTGGTT — within error, 0.624 ± 0.019
- TTTTTGCATCATCAGCATCATTTTTTTTTTTTTTTTGGTG [GTGGT] — lower, 0.568 ± 0.028
- TTTTTGCATCATCAGCATGATTTTTTTTTTTTTTTTGGTC [CTGGT] — lower, 0.478 ± 0.024
- TTTTTGCATCATCAGCATGCTTTTTTTTTTTTTTTTGGTA [ATGGT] — lower, 0.609 ± 0.0091
- TTTTTGCATCATCATCAGCATTTTTTTTTTTTTTTTGGGT — within error, 0.686 ± 0.028
- TTTTTGCATCATCATCATCATTTTTTTTTTTTTTTTGGGG [GGGGT] — within error, 0.66 ± 0.023
- TTTTTGCATCATCATCATGATTTTTTTTTTTTTTTTGGGC [CGGGT] — lower, 0.591 ± 0.026
- TTTTTGCATCATCATCATGCTTTTTTTTTTTTTTTTGGGA [AGGGT] — higher, 0.757 ± 0.01
- TTTTTGCATCATCATGAGCATTTTTTTTTTTTTTTTGGCT [TCGGT] — lower, 0.549 ± 0.017
- TTTTTGCATCATCATGATCATTTTTTTTTTTTTTTTGGCG [GCGGT] — within error, 0.631 ± 0.026
- TTTTTGCATCATCATGATGATTTTTTTTTTTTTTTTGGCC [CCGGT] — lower, 0.46 ± 0.032
- TTTTTGCATCATCATGATGCTTTTTTTTTTTTTTTTGGCA [ACGGT] — lower, 0.562 ± 0.015
- TTTTTGCATCATCATGCGCATTTTTTTTTTTTTTTTGGAT [TAGGT] — lower, 0.617 ± 0.023
- TTTTTGCATCATCATGCTCATTTTTTTTTTTTTTTTGGAG [GAGGT] — lower, 0.589 ± 0.02
- TTTTTGCATCATCATGCTGATTTTTTTTTTTTTTTTGGAC [CAGGT] — lower, 0.5012 ± 0.0043
- TTTTTGCATCATCATGCTGCTTTTTTTTTTTTTTTTGGAA [AAGGT] — within error, 0.653 ± 0.024
- TTTTTGCATCATGAGCAGCATTTTTTTTTTTTTTTTGCTT [TTCGT] — lower, 0.514 ± 0.029
- TTTTTGCATCATGAGCATCATTTTTTTTTTTTTTTTGCTG [GTCGT] — lower, 0.463 ± 0.018
- TTTTTGCATCATGAGCATGATTTTTTTTTTTTTTTTGCTC [CTCGT] — lower, 0.374 ± 0.037
- TTTTTGCATCATGAGCATGCTTTTTTTTTTTTTTTTGCTA [ATCGT] — lower, 0.55 ± 0.032
- TTTTTGCATCATGATCAGCATTTTTTTTTTTTTTTTGCGT — within error, 0.6597 ± 0.003
- TTTTTGCATCATGATCATCATTTTTTTTTTTTTTTTGCGG [GGCGT] — lower, 0.603 ± 0.016
- TTTTTGCATCATGATCATGATTTTTTTTTTTTTTTTGCGC [CGCGT] — lower, 0.596 ± 0.02
- TTTTTGCATCATGATCATGCTTTTTTTTTTTTTTTTGCGA [AGCGT] — within error, 0.675 ± 0.036
- TTTTTGCATCATGATGAGCATTTTTTTTTTTTTTTTGCCT [TCCGT] — lower, 0.444 ± 0.011
- TTTTTGCATCATGATGATCATTTTTTTTTTTTTTTTGCCG [GCCGT] — lower, 0.519 ± 0.027
- TTTTTGCATCATGATGATGATTTTTTTTTTTTTTTTGCCC [CCCGT] — lower, 0.378 ± 0.032
- TTTTTGCATCATGATGATGCTTTTTTTTTTTTTTTTGCCA [ACCGT] — lower, 0.519 ± 0.0069
- TTTTTGCATCATGATGCGCATTTTTTTTTTTTTTTTGCAT [TACGT] — lower, 0.529 ± 0.02
- TTTTTGCATCATGATGCTCATTTTTTTTTTTTTTTTGCAG [GACGT] — lower, 0.526 ± 0.033
- TTTTTGCATCATGATGCTGATTTTTTTTTTTTTTTTGCAC [CACGT] — lower, 0.415 ± 0.035
- TTTTTGCATCATGATGCTGCTTTTTTTTTTTTTTTTGCAA [AACGT] — lower, 0.594 ± 0.0062
- TTTTTGCATCATGCGCAGCATTTTTTTTTTTTTTTTGATT [TTAGT] — lower, 0.579 ± 0.035
- TTTTTGCATCATGCGCATCATTTTTTTTTTTTTTTTGATG [GTAGT] — lower, 0.53 ± 0.0055
- TTTTTGCATCATGCGCATGATTTTTTTTTTTTTTTTGATC [CTAGT] — lower, 0.442 ± 0.024
- TTTTTGCATCATGCGCATGCTTTTTTTTTTTTTTTTGATA [ATAGT] — lower, 0.555 ± 0.039
- TTTTTGCATCATGCTCAGCATTTTTTTTTTTTTTTTGAGT — within error, 0.659 ± 0.023
- TTTTTGCATCATGCTCATCATTTTTTTTTTTTTTTTGAGG [GGAGT] — within error, 0.67 ± 0.013
- TTTTTGCATCATGCTCATGATTTTTTTTTTTTTTTTGAGC [CGAGT] — lower, 0.556 ± 0.024
- TTTTTGCATCATGCTGAGCATTTTTTTTTTTTTTTTGACT [TCAGT] — lower, 0.473 ± 0.034
- TTTTTGCATCATGCTGATCATTTTTTTTTTTTTTTTGACG [GCAGT] — lower, 0.536 ± 0.016
- TTTTTGCATCATGCTGATGATTTTTTTTTTTTTTTTGACC [CCAGT] — lower, 0.418 ± 0.027
- TTTTTGCATCATGCTGATGCTTTTTTTTTTTTTTTTGACA [ACAGT] — lower, 0.527 ± 0.019
- TTTTTGCATCATGCTGCGCATTTTTTTTTTTTTTTTGAAT [TAAGT] — lower, 0.558 ± 0.032
- TTTTTGCATCATGCTGCTCATTTTTTTTTTTTTTTTGAAG [GAAGT] — lower, 0.564 ± 0.02
- TTTTTGCATCATGCTGCTGATTTTTTTTTTTTTTTTGAAC [CAAGT] — lower, 0.461 ± 0.024
- TTTTTGCATCATGCTGCTGCTTTTTTTTTTTTTTTTGAAA [AAAGT] — lower, 0.603 ± 0.021
- TTTTTGCATGAGCAGCAGCATTTTTTTTTTTTTTTTCTTT — lower, 0.504 ± 0.016
- TTTTTGCATGAGCAGCATCATTTTTTTTTTTTTTTTCTTG [GTTCT] — lower, 0.489 ± 0.023
- TTTTTGCATGAGCAGCATGATTTTTTTTTTTTTTTTCTTC [CTTCT] — lower, 0.382 ± 0.043
- TTTTTGCATGAGCAGCATGCTTTTTTTTTTTTTTTTCTTA [ATTCT] — lower, 0.5004 ± 0.0042
